# Source: patent US20240182556A1 (OPSIDIO, published 2024)
# Read-outs that look alike come from different tables or passages of the source.
# T1: PE9413, C-terminal biotinylated peptide mapping on Exon6 of the SCF molecule (SCF248) (C-terminal biotin)
# T1 construct: also called C-terminal biotinylated PE9413; C-ter PE9413
# T1 peptide: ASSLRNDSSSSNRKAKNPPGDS
# T2: N-terminal biotinylated PE9413 (not fully specified; N-terminal biotin)
# T2 construct: also called PE9411; N-ter PE9413
# T2 peptide: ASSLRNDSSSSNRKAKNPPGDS
# How the values were obtained:
# [1] = biological target: T1, PE9413, C-terminal biotinylated peptide …; test: yeast-displayed scFv, flow cytometry titration of biotinylated peptide
# Protocol: (§1) The binding of the selected 48 clones described above to 170 nM of C-terminal biotinylated PE9413 was evaluated. The 24 clones with the highest binding signal were further evaluated for binding affinity. Each clone was incubated with increasing amounts of biotinylated PE9413, and stained with a fluorescently labeled anti-streptavidin antibody. Binding of the clone to PE9413 was analyzed by flow cytometry. A plot of concentration of PE9413 versus the median fluorescent signal of the yeast cell population that bound to PE9413 was used to estimate the binding affinity (KD) of each clone to C-terminal biotinylated PE9413.
# [2] = biological target: T2, N-terminal biotinylated PE9413; test: yeast-displayed scFv, flow cytometry titration of N-terminal biotinylated peptide
# Protocol: The affinity of the 12 best clones for the N-terminal biotinylated target peptide […] was also evaluated. Each clone was incubated with increasing amounts of N-terminal biotinylated PE9413, and stained with a fluorescently labeled anti-streptavidin antibody. Binding of the clone to N-terminal biotinylated PE9413 was analyzed by flow cytometry. A plot of concentration of PE9413 versus the median fluorescent signal of the yeast cell population that bound to PE9413 was used to estimate the binding affinity (KD) of each clone to N-terminal biotinylated PE9413. The tested clones were confirmed to have improved affinities over the parental antibody 5H10 against the target sequence PE9413, regardless of the biotinylation modification, as reported in Table A3 and FIG. 12.
# [3] = biological target: T1, PE9413, C-terminal biotinylated peptide …; test: yeast-displayed scFv, flow cytometry titration of biotinylated peptide
# Protocol: as §1, with “PE9413. […]” for “PE9413.”
Kd [1] [nM],Kd [2] [nM],Kd [3] [nM],Binder
3.29,5.23,3.29,"A64P scFv displayed on yeast (scFv, V domains shown, Aga2-anchored, VH-VL orientation; not shown: linker; SV5 tag) VH: QVQLVQSGAELKKPGSSVKISCKSSGYAFSSNWMNWVKQRPGQGLEWIGQIYPEDGDTHYNGKFKGKATLTADKSTSTAYMELSSLTSEDSAVYFCSSSNWVGSYWGQGTLVTVSS VL: DVVMTQSPLSLPVTLGQPASISCKSSQSLLEEDGNTYLNWLQQRPGQSPRRLIYLVNRLDDGVPDRFSGSGSGTDFTLKISRVEAEDVGVYYCWQGTDLPQTFGGGTKVEIK"
3.64,5.85,3.64,"A104P scFv displayed on yeast (scFv, V domains shown, Aga2-anchored, VH-VL orientation; not shown: linker; SV5 tag) VH: QVQLVQSGAELKKPGSSVKISCKSSGYAFSSQWMNWVKQRPGQGLEWIGQIYPEDGDTHYNGKFKGKATLTADKSTSTAYMELSSLTSEDSAVYFCSSSNWVGSYWGQGTLVTVSS VL: DVVMTQSPLSLPVTLGQPASISCKSSQSLLEEDGNTYLNWLQQRPGQSPRRLIYLVDRLDSGVPDRFSGSGSGTDFTLKISRVEAEDVGVYYCWQGTDLPQTFGGGTKVEIK"
6.97,–,–,"D124P scFv displayed on yeast (scFv, V domains shown, Aga2-anchored, VH-VL orientation; not shown: linker; SV5 tag) VH: QVQLVQSGAELKKPGSSVKISCKSSGYAFSSQWMNWVKQRPGQGLEWIGQIYPEDGDTHYNGKFKGKATLTADKSTSTAYMELSSLTSEDSAVYFCSSSNWVGSYWGQGTLVTVSS VL: DVVMTQSPLSLPVTLGQPASISCKSSQSLLESDGNTYLNWLQQRPGQSPRRLIYLVDRLDSGVPDRFSGSGSGTDFTLKISRVEAEDVGVYYCWQGTDLPQTFGGGTKVEIK"
2.52,3.93,2.52,"A84P scFv displayed on yeast (scFv, V domains shown, Aga2-anchored, VH-VL orientation; not shown: linker; SV5 tag) VH: QVQLVQSGAELKKPGSSVKISCKSSGYAFSSQWMNWVKQRPGQGLEWIGQIYPEDGDTHMNGKFKGKATLTADKSTSTAYMELSSLTSEDSAVYFCSSSNWVGSYWGQGTLVTVSS VL: DVVMTQSPLSLPVTLGQPASISCKSSQSLLEEDGNTYLNWLQQRPGQSPRRLIYLVDRLDIGVPDRFSGSGSGTDFTLKISRVEAEDVGVYYCWQGTDLPQTFGGGTKVEIK"
4.39,5.38,4.39,"D14P scFv displayed on yeast (scFv, V domains shown, Aga2-anchored, VH-VL orientation; not shown: linker; SV5 tag) VH: QVQLVQSGAELKKPGSSVKISCKSSGYAFSSQWMNWVKQRPGQGLEWIGQIYPGDDDTHYNDKFKGKATLTADKSTSTAYMELSSLTSEDSAVYFCSSSNWVGSYWGQGTLVTVSS VL: DVVMTQSPLSLPVTLGQPASISCKSSQSLLESDGNTYLNWLQQRPGQSPRRLIYLVDRLDLGVPDRFSGSGSGTDFTLKISRVEAEDVGVYYCWQGTDLPQTFGGGTKVEIK"
3.82,5,3.82,"B124P scFv displayed on yeast (scFv, V domains shown, Aga2-anchored, VH-VL orientation; not shown: linker; SV5 tag) VH: QVQLVQSGAELKKPGSSVKISCKSSGYAFSSNWMNWVKQRPGQGLEWIGQIYPEDGDTHYNDKFKGKATLTADKSTSTAYMELSSLTSEDSAVYFCSSSNWVGSYWGQGTLVTVSS VL: DVVMTQSPLSLPVTLGQPASISCKSSQSLLEQDGNTYLNWLQQRPGQSPRRLIYLVDRLDSGVPDRFSGSGSGTDFTLKISRVEAEDVGVYYCWQGTDLPQTFGGGTKVEIK"
4.08,5.3,4.08,"H83P scFv displayed on yeast (scFv, V domains shown, Aga2-anchored, VH-VL orientation; not shown: linker; SV5 tag) VH: QVQLVQSGAELKKPGSSVKISCKSSGYAFSSQWMNWVKQRPGQGLEWIGQIYPGDGDIHYNDKFKGKATLTADKSTSTAYMELSSLTSEDSAVYFCSSSNWVGSYWGQGTLVTVSS VL: DVVMTQSPLSLPVTLGQPASISCKSSQSLLESDGNTYLNWLQQRPGQSPRRLIYLVDRLDSGVPDRFSGSGSGTDFTLKISRVEAEDVGVYYCWQGTDLPQTFGGGTKVEIK"
5.79,–,–,"G24P scFv displayed on yeast (scFv, V domains shown, Aga2-anchored, VH-VL orientation; not shown: linker; SV5 tag) VH: QVQLVQSGAELKKPGSSVKISCKSSGYAFSSNWMNWVKQRPGQGLEWIGQIYPEDGDTHYNDKFKGKATLTADKSTSTAYMELSSLTSEDSAVYFCSSSNWVGSYWGQGTLVTVSS VL: DVVMTQSPLSLPVTLGQPASISCKSSQSLLESDGNTYLNWLQQRPGQSPRRLIYLVDRLDSGVPDRFSGSGSGTDFTLKISRVEAEDVGVYYCWQGTDLPQTFGGGTKVEIK"
4.52,6.38,4.52,"B104P scFv displayed on yeast (scFv, V domains shown, Aga2-anchored, VH-VL orientation; not shown: linker; SV5 tag) VH: QVQLVQSGAELKKPGSSVKISCKSSGYAFSSQWMNWVKQRPGQGLEWIGQIYPDDGDTHYNDKFKGKATLTADKSTSTAYMELSSLTSEDSAVYFCSSSNWVGSYWGQGTLVTVSS VL: DVVMTQSPLSLPVTLGQPASISCKSSQSLLEADGNTYLNWLQQRPGQSPRRLIYLVDRLDSGVPDRFSGSGSGTDFTLKISRVEAEDVGVYYCWQGTDLPQTFGGGTKVEIK"
6.69,–,–,"F64P scFv displayed on yeast (scFv, V domains shown, Aga2-anchored, VH-VL orientation; not shown: linker; SV5 tag) VH: QVQLVQSGAELKKPGSSVKISCKSSGYAFSSYYMNWVKQRPGQGLEWIGQIYPGDGDTHMNGKFKGKATLTADKSTSTAYMELSSLTSEDSAVYFCSSSNWVGSYWGQGTLVTVSS VL: DVVMTQSPLSLPVTLGQPASISCKSSQSLLESDGNTYLNWLQQRPGQSPRRLIYLVDRLDSGVPDRFSGSGSGTDFTLKISRVEAEDVGVYYCWQGTDLPQTFGGGTKVEIK"
4.09,5.66,4.09,"F54P scFv displayed on yeast (scFv, V domains shown, Aga2-anchored, VH-VL orientation; not shown: linker; SV5 tag) VH: QVQLVQSGAELKKPGSSVKISCKSSGYAFSSQWMNWVKQRPGQGLEWIGQIYPEDGDTHMNGKFKTKATLTADKSTSTAYMELSSLTSEDSAVYFCSSSNWVGSYWGQGTLVTVSS VL: DVVMTQSPLSLPVTLGQPASISCKSSQSLLEEDGNTYLNWLQQRPGQSPRRLIYLVDRLDSGVPDRFSGSGSGTDFTLKISRVEAEDVGVYYCWQGTDLPQTFGGGTKVEIK"
4.18,4.61,4.18,"D44P scFv displayed on yeast (scFv, V domains shown, Aga2-anchored, VH-VL orientation; not shown: linker; SV5 tag) VH: QVQLVQSGAELKKPGSSVKISCKSSGYAFSSQWMNWVKQRPGQGLEWIGQIYPEDGDIHYNGKFKGKATLTADKSTSTAYMELSSLTSEDSAVYFCSSSNWVGSYWGQGTLVTVSS VL: DVVMTQSPLSLPVTLGQPASISCKSSQSLLEEDGNTYLNWLQQRPGQSPRRLIYLVDRLDSGVPDRFSGSGSGTDFTLKISRVEAEDVGVYYCWQGSHLPQTFGGGTKVEIK"
5.93,–,–,"G14P scFv displayed on yeast (scFv, V domains shown, Aga2-anchored, VH-VL orientation; not shown: linker; SV5 tag) VH: QVQLVQSGAELKKPGSSVKISCKSSGYAFSSQWMNWVKQRPGQGLEWIGQIYPGDGDTHYNDKFKGKATLTADKSTSTAYMELSSLTSEDSAVYFCSSSNWVGSYWGQGTLVTVSS VL: DVVMTQSPLSLPVTLGQPASISCKSSQSLLEEDGNTYLNWLQQRPGQSPRRLIYLVDRLDDGVPDRFSGSGSGTDFTLKISRVEAEDVGVYYCWQGTDLPQTFGGGTKVEIK"
3.63,7.14,3.63,"B114P scFv displayed on yeast (scFv, V domains shown, Aga2-anchored, VH-VL orientation; not shown: linker; SV5 tag) VH: QVQLVQSGAELKKPGSSVKISCKSSGYAFSSQWMNWVKQRPGQGLEWIGQIYPEDGDTHMNGKFKGKATLTADKSTSTAYMELSSLTSEDSAVYFCSSSNWDGSYWGQGTLVTVSS VL: DVVMTQSPLSLPVTLGQPASISCKSSQSLLEEDGNTYLNWLQQRPGQSPRRLIYLVDRLDSGVPDRFSGSGSGTDFTLKISRVEAEDVGVYYCWQGTDLPQTFGGGTKVEIK"
6.33,–,–,"E94P scFv displayed on yeast (scFv, V domains shown, Aga2-anchored, VH-VL orientation; not shown: linker; SV5 tag) VH: QVQLVQSGAELKKPGSSVKISCKSSGYAFSSQWMNWVKQRPGQGLEWIGQIYPGDGDTHMNGKFKGKATLTADKSTSTAYMELSSLTSEDSAVYFCSSSNWVGSYWGQGTLVTVSS VL: DVVMTQSPLSLPVTLGQPASISCKSSQSLLEEDGNTYLNWLQQRPGQSPRRLIYLVDRLDSGVPDRFSGSGSGTDFTLKISRVEAEDVGVYYCWQGTDLPQTFGGGTKVEIK"
3.84,4.9,3.84,"H74P scFv displayed on yeast (scFv, V domains shown, Aga2-anchored, VH-VL orientation; not shown: linker; SV5 tag) VH: QVQLVQSGAELKKPGSSVKISCKSSGYAFSSQWMNWVKQRPGQGLEWIGQIYPEDGDTHYNGKFKGKATLTADKSTSTAYMELSSLTSEDSAVYFCSSSNWVGSYWGQGTLVTVSS VL: DVVMTQSPLSLPVTLGQPASISCKSSQSLLEEDGNTYLNWLQQRPGQSPRRLIYLVDRLDLGVPDRFSGSGSGTDFTLKISRVEAEDVGVYYCWQGSHLPQTFGGGTKVEIK"
7.09,–,–,"G104P scFv displayed on yeast (scFv, V domains shown, Aga2-anchored, VH-VL orientation; not shown: linker; SV5 tag) VH: QVQLVQSGAELKKPGSSVKISCKSSGYAFSSQWMNWVKQRPGQGLEWIGQIYPGDGDTHMNGKFKGKATLTADKSTSTAYMELSSLTSEDSAVYFCSSSNWVGSYWGQGTLVTVSS VL: DVVMTQSPLSLPVTLGQPASISCKSSQSLLEEDGNTYLNWLQQRPGQSPRRLIYLVDRLDDGVPDRFSGSGSGTDFTLKISRVEAEDVGVYYCWQGTDLPQTFGGGTKVEIK"
